Test results taken from publication PMC10397247.
One block for each binder: values may come before it.

How the values were obtained:
Core_NIIN-es_KKEE = target: T1, Core_NIIN-es_KKEE; test: two-hybrid library CCmax; conditions: mean of both orientations;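 also: natural log of median RNA to DNA barcode read ratio; higher means stronger binding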
T1 chain: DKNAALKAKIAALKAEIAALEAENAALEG

P10bHq = target: T2, P10bHq; test: two-hybrid library CCNG1;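 also: natural log of median RNA to DNA barcode read ratio; higher means stronger binding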
T2 chain: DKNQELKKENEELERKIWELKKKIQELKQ

P11bHq = target: T3, P11bHq; test: two-hybrid library CCNG1;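 also: natural log of median RNA to DNA barcode read ratio; higher means stronger binding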
T3 chain: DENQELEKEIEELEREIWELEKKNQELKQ

P12bHq = target: T4, P12bHq; test: two-hybrid library CCNG1;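 also: natural log of median RNA to DNA barcode read ratio; higher means stronger binding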
T4 chain: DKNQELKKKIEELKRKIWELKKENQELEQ

P1bHq = target: T5, P1bHq; test: two-hybrid library CCNG1;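 also: natural log of median RNA to DNA barcode read ratio; higher means stronger binding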
T5 chain: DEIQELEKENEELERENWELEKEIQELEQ

P3bHq = target: T6, P3bHq; test: two-hybrid library CCNG1;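 also: natural log of median RNA to DNA barcode read ratio; higher means stronger binding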
T6 chain: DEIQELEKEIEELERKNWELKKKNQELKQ

P4bHq = target: T7, P4bHq; test: two-hybrid library CCNG1
T7 chain: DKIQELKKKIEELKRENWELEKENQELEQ

P5bHq = target: T8, P5bHq; test: two-hybrid library CCNG1
T8 chain: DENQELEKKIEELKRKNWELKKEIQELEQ

P6bHq = target: T9, P6bHq; test: two-hybrid library CCNG1
T9 chain: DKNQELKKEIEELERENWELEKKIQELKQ

P7bHq = target: T10, P7bHq; test: two-hybrid library CCNG1
T10 chain: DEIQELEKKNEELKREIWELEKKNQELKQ

P8bHq = target: T11, P8bHq; test: two-hybrid library CCNG1
T11 chain: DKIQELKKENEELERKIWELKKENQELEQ

P9bHq = target: T12, P9bHq; test: two-hybrid library CCNG1
T12 chain: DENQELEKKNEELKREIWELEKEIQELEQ

P6p = target: T13, P6p; test: two-hybrid library CCmax; conditions: mean of both orientations
T13 chain: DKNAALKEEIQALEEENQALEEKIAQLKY

4H1347-bN = target: T14, 4H1347-bN; test: two-hybrid library CCNG1
T14 chain: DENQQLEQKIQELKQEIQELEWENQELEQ

4H145-bN = target: T15, 4H145-bN; test: two-hybrid library CCNG1
T15 chain: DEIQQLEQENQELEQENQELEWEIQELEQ

4H2619-bN = target: T16, 4H2619-bN; test: two-hybrid library CCNG1
T16 chain: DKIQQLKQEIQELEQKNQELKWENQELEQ

4H2691-bN = target: T17, 4H2691-bN; test: two-hybrid library CCNG1
T17 chain: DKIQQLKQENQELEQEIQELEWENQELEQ

4H3070-bN = target: T18, 4H3070-bN; test: two-hybrid library CCNG1
T18 chain: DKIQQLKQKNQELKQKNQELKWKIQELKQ

4H342-bN = target: T19, 4H342-bN; test: two-hybrid library CCNG1
T19 chain: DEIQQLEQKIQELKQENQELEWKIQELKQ

4H3632-bN = target: T20, 4H3632-bN; test: two-hybrid library CCNG1
T20 chain: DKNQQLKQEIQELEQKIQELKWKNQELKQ

4H496-bN = target: T21, 4H496-bN; test: two-hybrid library CCNG1
T21 chain: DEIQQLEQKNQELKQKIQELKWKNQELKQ

Core_IINI-es_KKEK = target: T22, Core_IINI-es_KKEK; test: two-hybrid library CCmax; conditions: mean of both orientations
T22 chain: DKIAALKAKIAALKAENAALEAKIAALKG

Binder: DENAALEAEIAALEAKIAALKAKNAALKG [Core_NIIN-es_EEKK]
interaction score (Core_NIIN-es_KKEE): 2.03

Binder: DKNQELKKENEELERKIWELKKKIQELKQ [P10bHq]
interaction score (P10bHq): -0.704 | interaction score (P11bHq): -1.18 | interaction score (P12bHq): 1.08 | interaction score (P1bHq): 1.43 | interaction score (P3bHq): -0.901 | interaction score (P4bHq): 0.266 | interaction score (P5bHq): -0.0841 | interaction score (P6bHq): 1.3 | interaction score (P7bHq): 1.54 | interaction score (P8bHq): -0.382 | interaction score (P9bHq): 1

Binder: DENAALEEKIAQLKQKNAALKEEIQALEY [P5p]
interaction score (P6p): 1.9

More lines, now with the values ahead:

interaction score (4H1347-bN): -0.341 | interaction score (4H145-bN): -0.341 | interaction score (4H2619-bN): -1.17 | interaction score (4H2691-bN): -0.113 | interaction score (4H3070-bN): 0.122 | interaction score (4H342-bN): -0.286 | interaction score (4H3632-bN): 1.6 | interaction score (4H496-bN): -0.299
Binder: DENQQLEQKIQELKQEIQELEWENQELEQ [4H1347-bN]

interaction score (Core_IINI-es_KKEK): 2.32
Binder: DEIAALEAEIAALEAKNAALKAEIAALEG [Core_IINI-es_EEKE]
